Experimental data reported in the supplement of paper PMC10065799, “High-throughput profiling of sequence recognition by tyrosine kinases and SH2 domains using bacterial peptide display” (eLife, 2023).
Blank lines part the entries; values can stand above or below the sequence they belong to.

Legend:
Grb2 SH2 = Grb2 SH2 (UniProt P62993); assay: SH2 binding enrichment of the phosphorylated peptide, bacterial display (enrichment ratio); higher = better substrate or ligand; peptides without Tyr show the background
SHP2-C SH2 = assay: as above
c-Src SH2 = assay: as above
Fes = Fes (UniProt P07332); assay: phosphorylation enrichment, bacterial display (enrichment ratio); higher = better substrate or ligand; peptides without Tyr show the background
Fer (mouse) = assay: as above
Jak2 = Jak2 (UniProt O60674); assay: as above
MERTK = MERTK (UniProt Q12866); assay: as above
c-Src = assay: as above
Hck = Hck (UniProt P08631); assay: as above
FGFR3 = FGFR3 (UniProt P22607); assay: as above
c-Abl (mouse) = assay: as above
Fyn = Fyn (UniProt P06241); assay: as above
FGFR1 = FGFR1 (UniProt P11362); assay: as above
EPHB2 = EPHB2 (UniProt P29323); assay: as above
EPHB1 = EPHB1 (UniProt P54762); assay: as above
AncSZ = assay: as above
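Wherever SH2 binding enrichment of the phosphorylated peptide, bacterial display is given: peptide library displayed on the E. coli surface as eCPX fusions, selected cells deep-sequenced, score is each peptide's frequency after selection divided by its frequency in the input.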
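Wherever phosphorylation enrichment, bacterial display is given: 11-residue human phosphosite peptides and single-mutation variants displayed on the E. coli surface, counted by deep sequencing, each peptide's frequency after selection divided by its frequency in the unselected input library; frequency after pTyr selection over input frequency; kinase dosed for 20-30% of maximal phosphorylation in three min.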

EPHB2, sequence (P29323 whole entry, looked up): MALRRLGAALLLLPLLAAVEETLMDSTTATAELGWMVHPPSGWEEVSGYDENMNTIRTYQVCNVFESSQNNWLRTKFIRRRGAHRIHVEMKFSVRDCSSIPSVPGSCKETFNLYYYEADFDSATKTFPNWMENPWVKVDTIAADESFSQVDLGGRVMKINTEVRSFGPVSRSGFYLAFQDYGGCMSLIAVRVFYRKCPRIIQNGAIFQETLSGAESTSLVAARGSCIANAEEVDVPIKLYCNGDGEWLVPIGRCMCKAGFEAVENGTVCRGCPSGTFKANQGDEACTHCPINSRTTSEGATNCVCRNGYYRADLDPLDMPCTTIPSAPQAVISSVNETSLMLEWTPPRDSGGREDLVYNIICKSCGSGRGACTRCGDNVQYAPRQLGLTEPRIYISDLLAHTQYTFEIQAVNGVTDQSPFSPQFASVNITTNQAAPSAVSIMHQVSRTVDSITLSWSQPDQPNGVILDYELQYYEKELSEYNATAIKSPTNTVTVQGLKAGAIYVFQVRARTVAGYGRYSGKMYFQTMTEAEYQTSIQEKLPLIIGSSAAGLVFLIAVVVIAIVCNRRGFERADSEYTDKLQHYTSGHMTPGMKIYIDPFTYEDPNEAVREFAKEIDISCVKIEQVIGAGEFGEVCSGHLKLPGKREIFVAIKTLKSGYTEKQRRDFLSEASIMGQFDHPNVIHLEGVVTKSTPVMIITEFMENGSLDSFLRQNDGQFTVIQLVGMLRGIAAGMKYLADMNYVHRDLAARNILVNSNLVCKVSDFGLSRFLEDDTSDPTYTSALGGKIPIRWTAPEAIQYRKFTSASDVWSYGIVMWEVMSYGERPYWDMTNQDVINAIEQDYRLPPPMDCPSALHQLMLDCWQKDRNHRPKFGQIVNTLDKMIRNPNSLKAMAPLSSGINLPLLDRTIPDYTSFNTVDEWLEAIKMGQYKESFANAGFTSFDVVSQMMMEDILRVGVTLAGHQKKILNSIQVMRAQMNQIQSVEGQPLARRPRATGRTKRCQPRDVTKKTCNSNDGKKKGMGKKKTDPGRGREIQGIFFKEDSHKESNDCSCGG
MERTK, sequence (Q12866 whole entry, looked up): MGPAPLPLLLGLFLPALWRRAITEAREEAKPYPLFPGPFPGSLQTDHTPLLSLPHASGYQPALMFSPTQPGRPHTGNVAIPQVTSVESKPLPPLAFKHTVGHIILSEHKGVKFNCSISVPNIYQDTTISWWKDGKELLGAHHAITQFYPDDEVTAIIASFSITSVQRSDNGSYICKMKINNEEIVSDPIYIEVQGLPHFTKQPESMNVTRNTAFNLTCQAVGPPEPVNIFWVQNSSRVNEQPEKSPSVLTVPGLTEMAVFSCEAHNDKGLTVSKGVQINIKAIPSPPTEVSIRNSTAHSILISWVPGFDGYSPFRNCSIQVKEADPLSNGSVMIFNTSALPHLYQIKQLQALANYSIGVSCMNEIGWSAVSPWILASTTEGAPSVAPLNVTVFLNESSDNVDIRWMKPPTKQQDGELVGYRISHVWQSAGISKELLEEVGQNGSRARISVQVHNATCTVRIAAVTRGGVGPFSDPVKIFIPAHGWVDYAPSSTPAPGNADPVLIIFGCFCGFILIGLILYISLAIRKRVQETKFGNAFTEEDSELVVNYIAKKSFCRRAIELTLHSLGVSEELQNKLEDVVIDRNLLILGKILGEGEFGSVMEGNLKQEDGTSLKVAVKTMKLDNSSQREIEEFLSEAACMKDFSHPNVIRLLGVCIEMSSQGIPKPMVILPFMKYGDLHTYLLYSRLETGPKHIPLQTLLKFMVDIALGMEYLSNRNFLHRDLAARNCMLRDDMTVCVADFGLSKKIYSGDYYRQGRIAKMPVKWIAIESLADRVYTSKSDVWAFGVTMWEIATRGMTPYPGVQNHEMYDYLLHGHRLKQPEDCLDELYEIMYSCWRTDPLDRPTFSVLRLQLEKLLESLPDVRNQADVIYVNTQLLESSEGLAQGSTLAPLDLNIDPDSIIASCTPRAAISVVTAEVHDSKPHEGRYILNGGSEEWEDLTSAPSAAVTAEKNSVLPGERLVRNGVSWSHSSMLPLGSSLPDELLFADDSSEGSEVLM
Fyn, sequence (P06241 whole entry, looked up): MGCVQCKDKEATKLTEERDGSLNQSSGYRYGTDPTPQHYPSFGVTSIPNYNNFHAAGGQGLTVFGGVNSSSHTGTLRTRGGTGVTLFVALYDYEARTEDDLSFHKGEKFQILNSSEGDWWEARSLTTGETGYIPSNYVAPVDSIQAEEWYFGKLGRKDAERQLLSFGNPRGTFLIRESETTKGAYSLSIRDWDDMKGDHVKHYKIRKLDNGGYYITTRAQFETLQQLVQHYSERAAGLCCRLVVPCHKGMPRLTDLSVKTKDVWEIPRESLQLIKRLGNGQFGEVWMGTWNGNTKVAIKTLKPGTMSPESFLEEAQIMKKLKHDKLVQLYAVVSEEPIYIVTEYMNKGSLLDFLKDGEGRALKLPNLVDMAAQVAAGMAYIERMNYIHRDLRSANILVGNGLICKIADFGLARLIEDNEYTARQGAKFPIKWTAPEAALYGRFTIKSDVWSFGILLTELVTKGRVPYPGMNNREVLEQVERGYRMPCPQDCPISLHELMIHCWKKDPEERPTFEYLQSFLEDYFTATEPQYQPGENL
EPHB1, sequence (P54762 whole entry, looked up): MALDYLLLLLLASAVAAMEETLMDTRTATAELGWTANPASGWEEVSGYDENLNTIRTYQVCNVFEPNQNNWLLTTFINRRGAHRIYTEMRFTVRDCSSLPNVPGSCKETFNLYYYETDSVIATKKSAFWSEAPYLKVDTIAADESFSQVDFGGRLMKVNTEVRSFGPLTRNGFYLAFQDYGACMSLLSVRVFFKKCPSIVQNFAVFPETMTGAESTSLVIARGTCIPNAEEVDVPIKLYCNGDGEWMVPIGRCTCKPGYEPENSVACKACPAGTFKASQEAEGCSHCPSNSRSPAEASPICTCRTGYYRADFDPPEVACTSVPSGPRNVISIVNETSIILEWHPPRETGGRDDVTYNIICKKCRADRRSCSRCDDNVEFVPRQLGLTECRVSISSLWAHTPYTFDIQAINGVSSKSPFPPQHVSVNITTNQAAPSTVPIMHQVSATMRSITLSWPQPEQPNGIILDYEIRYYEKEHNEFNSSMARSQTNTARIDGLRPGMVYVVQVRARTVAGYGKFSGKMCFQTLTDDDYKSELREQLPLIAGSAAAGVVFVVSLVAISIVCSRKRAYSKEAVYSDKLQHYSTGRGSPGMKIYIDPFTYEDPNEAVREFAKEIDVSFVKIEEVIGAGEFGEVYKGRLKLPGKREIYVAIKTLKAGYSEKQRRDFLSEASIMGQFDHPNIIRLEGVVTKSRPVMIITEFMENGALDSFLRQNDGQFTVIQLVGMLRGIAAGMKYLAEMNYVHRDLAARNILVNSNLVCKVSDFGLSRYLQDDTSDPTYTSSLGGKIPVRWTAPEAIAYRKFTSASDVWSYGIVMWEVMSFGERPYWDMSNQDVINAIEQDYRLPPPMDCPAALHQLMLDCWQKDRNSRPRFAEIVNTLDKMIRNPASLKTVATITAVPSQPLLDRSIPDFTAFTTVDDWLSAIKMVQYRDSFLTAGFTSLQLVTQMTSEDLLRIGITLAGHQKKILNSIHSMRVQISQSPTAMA
FGFR1, sequence (P11362 whole entry, looked up): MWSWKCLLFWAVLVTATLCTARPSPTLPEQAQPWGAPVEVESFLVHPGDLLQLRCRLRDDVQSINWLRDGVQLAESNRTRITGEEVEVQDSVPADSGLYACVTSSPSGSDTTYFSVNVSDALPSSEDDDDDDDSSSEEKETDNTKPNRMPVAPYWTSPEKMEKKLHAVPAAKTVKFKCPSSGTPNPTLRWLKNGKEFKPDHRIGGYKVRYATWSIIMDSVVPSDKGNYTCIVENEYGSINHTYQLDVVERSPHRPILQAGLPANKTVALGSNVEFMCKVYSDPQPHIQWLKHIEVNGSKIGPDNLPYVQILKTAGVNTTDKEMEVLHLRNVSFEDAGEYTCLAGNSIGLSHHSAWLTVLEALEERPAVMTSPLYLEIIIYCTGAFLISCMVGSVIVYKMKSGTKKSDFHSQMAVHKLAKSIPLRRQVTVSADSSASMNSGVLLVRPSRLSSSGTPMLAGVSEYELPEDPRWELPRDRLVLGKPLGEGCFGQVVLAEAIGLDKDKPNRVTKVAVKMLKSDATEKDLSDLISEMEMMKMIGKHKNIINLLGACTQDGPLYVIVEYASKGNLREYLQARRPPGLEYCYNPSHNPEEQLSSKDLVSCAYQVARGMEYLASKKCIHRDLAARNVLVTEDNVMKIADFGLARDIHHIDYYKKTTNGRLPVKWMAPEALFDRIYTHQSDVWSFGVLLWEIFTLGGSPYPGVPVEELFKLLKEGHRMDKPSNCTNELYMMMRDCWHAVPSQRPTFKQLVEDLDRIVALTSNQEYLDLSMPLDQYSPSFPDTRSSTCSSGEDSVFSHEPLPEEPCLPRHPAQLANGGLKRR
Hck, sequence (P08631 whole entry, looked up): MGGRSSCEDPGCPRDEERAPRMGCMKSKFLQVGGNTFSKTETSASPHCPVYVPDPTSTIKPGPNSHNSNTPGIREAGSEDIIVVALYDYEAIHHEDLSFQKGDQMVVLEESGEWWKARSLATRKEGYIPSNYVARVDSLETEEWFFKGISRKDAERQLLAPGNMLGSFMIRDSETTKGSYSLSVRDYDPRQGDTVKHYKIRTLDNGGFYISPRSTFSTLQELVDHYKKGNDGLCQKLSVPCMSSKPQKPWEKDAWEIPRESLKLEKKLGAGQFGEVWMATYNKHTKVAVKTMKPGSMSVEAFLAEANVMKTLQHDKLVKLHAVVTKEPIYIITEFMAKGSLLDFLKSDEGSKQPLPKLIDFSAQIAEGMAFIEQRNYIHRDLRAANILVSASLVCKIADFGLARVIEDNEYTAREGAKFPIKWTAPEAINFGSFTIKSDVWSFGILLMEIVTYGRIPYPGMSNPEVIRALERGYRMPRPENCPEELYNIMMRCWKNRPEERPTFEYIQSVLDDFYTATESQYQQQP

Sequence: EAESWYQTKYE [KRT75_Y342]
SH2 binding enrichment (Grb2 SH2): 0.858
SH2 binding enrichment (SHP2-C SH2): 0.437
SH2 binding enrichment (c-Src SH2): 0.547
phosphorylation enrichment (Fes): 1.21
phosphorylation enrichment (Fer (mouse)): 0.505
phosphorylation enrichment (Jak2): 1.07
phosphorylation enrichment (MERTK): 0.505
phosphorylation enrichment (c-Src): 0.62
phosphorylation enrichment (Hck): 0.545
phosphorylation enrichment (FGFR3): 0.752
phosphorylation enrichment (c-Abl (mouse)): 0.686
phosphorylation enrichment (Fyn): 0.546
phosphorylation enrichment (FGFR1): 0.491
phosphorylation enrichment (EPHB2): 0.655
phosphorylation enrichment (EPHB1): 0.641
phosphorylation enrichment (AncSZ): 1.15

Sequence: NWGSPYKSDGC [ZNF347_Y261_N264D]
SH2 binding enrichment (Grb2 SH2): 0.768
SH2 binding enrichment (SHP2-C SH2): 0.587
SH2 binding enrichment (c-Src SH2): 0.405
phosphorylation enrichment (Fes): 0.864
phosphorylation enrichment (Fer (mouse)): 0.394
phosphorylation enrichment (Jak2): 0.673
phosphorylation enrichment (MERTK): 0.345
phosphorylation enrichment (c-Src): 0.397
phosphorylation enrichment (Hck): 0.442
phosphorylation enrichment (FGFR3): 0.522
phosphorylation enrichment (c-Abl (mouse)): 0.723
phosphorylation enrichment (Fyn): 0.4
phosphorylation enrichment (FGFR1): 0.562
phosphorylation enrichment (EPHB2): 0.51
phosphorylation enrichment (EPHB1): 0.486
phosphorylation enrichment (AncSZ): 0.864

Sequence: FFVVEYRDQKP [MUC17_Y4332_YF]
SH2 binding enrichment (Grb2 SH2): 1.6
SH2 binding enrichment (SHP2-C SH2): 1.55
SH2 binding enrichment (c-Src SH2): 0.861
phosphorylation enrichment (Fes): 1.27
phosphorylation enrichment (Fer (mouse)): 0.53
phosphorylation enrichment (Jak2): 1.03
phosphorylation enrichment (MERTK): 0.374
phosphorylation enrichment (c-Src): 0.566
phosphorylation enrichment (Hck): 0.515
phosphorylation enrichment (FGFR3): 0.803
phosphorylation enrichment (c-Abl (mouse)): 0.617
phosphorylation enrichment (Fyn): 0.474
phosphorylation enrichment (FGFR1): 0.612
phosphorylation enrichment (EPHB2): 0.647
phosphorylation enrichment (EPHB1): 0.657
phosphorylation enrichment (AncSZ): 1.05

Sequence: PHQTIYGALMI [FGF23_Y70_S71G]
SH2 binding enrichment (Grb2 SH2): 0.75
SH2 binding enrichment (SHP2-C SH2): 0.599
SH2 binding enrichment (c-Src SH2): 0.341
phosphorylation enrichment (Fes): 1.07
phosphorylation enrichment (Fer (mouse)): 3.41
phosphorylation enrichment (Jak2): 0.721
phosphorylation enrichment (MERTK): 0.796
phosphorylation enrichment (c-Src): 5.96
phosphorylation enrichment (Hck): 7.87
phosphorylation enrichment (FGFR3): 0.838
phosphorylation enrichment (c-Abl (mouse)): 1.36
phosphorylation enrichment (Fyn): 10.6
phosphorylation enrichment (FGFR1): 0.57
phosphorylation enrichment (EPHB2): 0.711
phosphorylation enrichment (EPHB1): 0.679
phosphorylation enrichment (AncSZ): 0.849

Sequence: LNCIYYKDQTG [RS1_Y166_W163C]
SH2 binding enrichment (Grb2 SH2): 0.867
SH2 binding enrichment (SHP2-C SH2): 0.743
SH2 binding enrichment (c-Src SH2): 0.551
phosphorylation enrichment (Fes): 3.26
phosphorylation enrichment (Fer (mouse)): 1.55
phosphorylation enrichment (Jak2): 1.42
phosphorylation enrichment (MERTK): 1.78
phosphorylation enrichment (c-Src): 1.4
phosphorylation enrichment (Hck): 4.01
phosphorylation enrichment (FGFR3): 4.51
phosphorylation enrichment (c-Abl (mouse)): 1.08
phosphorylation enrichment (Fyn): 2.93
phosphorylation enrichment (FGFR1): 2.69
phosphorylation enrichment (EPHB2): 1.15
phosphorylation enrichment (EPHB1): 3.64
phosphorylation enrichment (AncSZ): 3.56

Sequence: TFRPPYYHRNC [HGD_Y333]
SH2 binding enrichment (Grb2 SH2): 1.38
SH2 binding enrichment (SHP2-C SH2): 1.86
SH2 binding enrichment (c-Src SH2): 1.18
phosphorylation enrichment (Fes): 0.878
phosphorylation enrichment (Fer (mouse)): 0.375
phosphorylation enrichment (Jak2): 0.686
phosphorylation enrichment (MERTK): 0.498
phosphorylation enrichment (c-Src): 0.559
phosphorylation enrichment (Hck): 0.524
phosphorylation enrichment (FGFR3): 0.486
phosphorylation enrichment (c-Abl (mouse)): 0.599
phosphorylation enrichment (Fyn): 0.562
phosphorylation enrichment (FGFR1): 0.497
phosphorylation enrichment (EPHB2): 0.474
phosphorylation enrichment (EPHB1): 0.506
phosphorylation enrichment (AncSZ): 0.721

Continued, in another order:

SH2 binding enrichment (Grb2 SH2): 1.06
SH2 binding enrichment (SHP2-C SH2): 0.653
SH2 binding enrichment (c-Src SH2): 0.64
Sequence: HCEDGYPGGSD [CTNND1_Y221_Y217C]
phosphorylation enrichment (Fes): 1.81
phosphorylation enrichment (Fer (mouse)): 0.672
phosphorylation enrichment (Jak2): 1.34
phosphorylation enrichment (MERTK): 0.626
phosphorylation enrichment (c-Src): 0.514
phosphorylation enrichment (Hck): 0.714
phosphorylation enrichment (FGFR3): 1.15
phosphorylation enrichment (c-Abl (mouse)): 1.35
phosphorylation enrichment (Fyn): 0.817
phosphorylation enrichment (FGFR1): 0.664
phosphorylation enrichment (EPHB2): 0.743
phosphorylation enrichment (EPHB1): 1.03
phosphorylation enrichment (AncSZ): 1.44

SH2 binding enrichment (Grb2 SH2): 0.938
SH2 binding enrichment (SHP2-C SH2): 1.04
SH2 binding enrichment (c-Src SH2): 0.831
Sequence: ISRLKYPVSQQ [BTK_Y375]
phosphorylation enrichment (Fes): 0.59
phosphorylation enrichment (Fer (mouse)): 0.318
phosphorylation enrichment (Jak2): 0.534
phosphorylation enrichment (MERTK): 0.313
phosphorylation enrichment (c-Src): 0.342
phosphorylation enrichment (Hck): 0.352
phosphorylation enrichment (FGFR3): 0.399
phosphorylation enrichment (c-Abl (mouse)): 0.486
phosphorylation enrichment (Fyn): 0.355
phosphorylation enrichment (FGFR1): 0.317
phosphorylation enrichment (EPHB2): 0.383
phosphorylation enrichment (EPHB1): 0.331
phosphorylation enrichment (AncSZ): 0.419

SH2 binding enrichment (Grb2 SH2): 0.714
SH2 binding enrichment (SHP2-C SH2): 0.898
SH2 binding enrichment (c-Src SH2): 2.11
Sequence: SSQHRYSTPHA [RAF1_Y232]
phosphorylation enrichment (Fes): 0.53
phosphorylation enrichment (Fer (mouse)): 0.365
phosphorylation enrichment (Jak2): 0.403
phosphorylation enrichment (MERTK): 0.437
phosphorylation enrichment (c-Src): 0.433
phosphorylation enrichment (Hck): 0.293
phosphorylation enrichment (FGFR3): 0.344
phosphorylation enrichment (c-Abl (mouse)): 0.387
phosphorylation enrichment (Fyn): 0.357
phosphorylation enrichment (FGFR1): 0.364
phosphorylation enrichment (EPHB2): 0.354
phosphorylation enrichment (EPHB1): 0.479
phosphorylation enrichment (AncSZ): 0.682

SH2 binding enrichment (Grb2 SH2): 0.675
SH2 binding enrichment (SHP2-C SH2): 0.7
SH2 binding enrichment (c-Src SH2): 0.545
Sequence: SLIDMYSEVPD [OPA1_Y268_L272P]
phosphorylation enrichment (Fes): 1.03
phosphorylation enrichment (Fer (mouse)): 0.422
phosphorylation enrichment (Jak2): 1.24
phosphorylation enrichment (MERTK): 0.604
phosphorylation enrichment (c-Src): 0.747
phosphorylation enrichment (Hck): 0.594
phosphorylation enrichment (FGFR3): 0.895
phosphorylation enrichment (c-Abl (mouse)): 0.619
phosphorylation enrichment (Fyn): 0.595
phosphorylation enrichment (FGFR1): 0.892
phosphorylation enrichment (EPHB2): 0.679
phosphorylation enrichment (EPHB1): 0.48
phosphorylation enrichment (AncSZ): 1.27

SH2 binding enrichment (Grb2 SH2): 0.708
SH2 binding enrichment (SHP2-C SH2): 1.28
SH2 binding enrichment (c-Src SH2): 3.75
Sequence: AAETTYDKILK [GDNF_Y156]
phosphorylation enrichment (Fes): 1.09
phosphorylation enrichment (Fer (mouse)): 0.474
phosphorylation enrichment (Jak2): 0.888
phosphorylation enrichment (MERTK): 0.376
phosphorylation enrichment (c-Src): 0.501
phosphorylation enrichment (Hck): 1.36
phosphorylation enrichment (FGFR3): 0.725
phosphorylation enrichment (c-Abl (mouse)): 0.521
phosphorylation enrichment (Fyn): 0.596
phosphorylation enrichment (FGFR1): 0.467
phosphorylation enrichment (EPHB2): 0.496
phosphorylation enrichment (EPHB1): 0.555
phosphorylation enrichment (AncSZ): 0.886

SH2 binding enrichment (Grb2 SH2): 0.769
SH2 binding enrichment (SHP2-C SH2): 0.557
SH2 binding enrichment (c-Src SH2): 0.507
Sequence: FEEDPYLVVNP [MCM6_Y810_YF]
phosphorylation enrichment (Fes): 1.46
phosphorylation enrichment (Fer (mouse)): 0.886
phosphorylation enrichment (Jak2): 1.54
phosphorylation enrichment (MERTK): 0.533
phosphorylation enrichment (c-Src): 2.65
phosphorylation enrichment (Hck): 1.04
phosphorylation enrichment (FGFR3): 1.62
phosphorylation enrichment (c-Abl (mouse)): 0.87
phosphorylation enrichment (Fyn): 1.88
phosphorylation enrichment (FGFR1): 1.23
phosphorylation enrichment (EPHB2): 0.6
phosphorylation enrichment (EPHB1): 0.743
phosphorylation enrichment (AncSZ): 1.87

SH2 binding enrichment (Grb2 SH2): 0.862
SH2 binding enrichment (SHP2-C SH2): 0.697
SH2 binding enrichment (c-Src SH2): 0.76
Sequence: YQLENYCNGGG [INS_Y108]
phosphorylation enrichment (Fes): 0.812
phosphorylation enrichment (Fer (mouse)): 0.55
phosphorylation enrichment (Jak2): 0.461
phosphorylation enrichment (MERTK): 0.426
phosphorylation enrichment (c-Src): 0.455
phosphorylation enrichment (Hck): 0.568
phosphorylation enrichment (FGFR3): 0.477
phosphorylation enrichment (c-Abl (mouse)): 0.473
phosphorylation enrichment (Fyn): 0.57
phosphorylation enrichment (FGFR1): 0.536
phosphorylation enrichment (EPHB2): 0.572
phosphorylation enrichment (EPHB1): 0.686
phosphorylation enrichment (AncSZ): 0.768

SH2 binding enrichment (Grb2 SH2): 0.644
SH2 binding enrichment (SHP2-C SH2): 0.82
SH2 binding enrichment (c-Src SH2): 0.629
Sequence: RDHFGYRQSVT [CD55_Y245_YF]
phosphorylation enrichment (Fes): 0.702
phosphorylation enrichment (Fer (mouse)): 0.427
phosphorylation enrichment (Jak2): 0.572
phosphorylation enrichment (MERTK): 0.474
phosphorylation enrichment (c-Src): 0.626
phosphorylation enrichment (Hck): 0.489
phosphorylation enrichment (FGFR3): 0.791
phosphorylation enrichment (c-Abl (mouse)): 0.538
phosphorylation enrichment (Fyn): 0.435
phosphorylation enrichment (FGFR1): 0.471
phosphorylation enrichment (EPHB2): 0.33
phosphorylation enrichment (EPHB1): 0.603
phosphorylation enrichment (AncSZ): 0.722

SH2 binding enrichment (Grb2 SH2): 1.01
SH2 binding enrichment (SHP2-C SH2): 1
SH2 binding enrichment (c-Src SH2): 1.36
Sequence: QRIHDYYEHRY [HCN4_Y554]
phosphorylation enrichment (Fes): 0.974
phosphorylation enrichment (Fer (mouse)): 0.903
phosphorylation enrichment (Jak2): 0.794
phosphorylation enrichment (MERTK): 0.433
phosphorylation enrichment (c-Src): 0.478
phosphorylation enrichment (Hck): 0.825
phosphorylation enrichment (FGFR3): 9.67
phosphorylation enrichment (c-Abl (mouse)): 0.445
phosphorylation enrichment (Fyn): 0.657
phosphorylation enrichment (FGFR1): 15.7
phosphorylation enrichment (EPHB2): 1.23
phosphorylation enrichment (EPHB1): 1.17
phosphorylation enrichment (AncSZ): 1.25

SH2 binding enrichment (Grb2 SH2): 1.33
SH2 binding enrichment (SHP2-C SH2): 1.07
SH2 binding enrichment (c-Src SH2): 0.95
Sequence: FVSSFYHAFSG [ACTN4_Y265_YF]
phosphorylation enrichment (Fes): 1.3
phosphorylation enrichment (Fer (mouse)): 0.522
phosphorylation enrichment (Jak2): 1.19
phosphorylation enrichment (MERTK): 8.71
phosphorylation enrichment (c-Src): 4.01
phosphorylation enrichment (Hck): 2.6
phosphorylation enrichment (FGFR3): 1.34
phosphorylation enrichment (c-Abl (mouse)): 2.01
phosphorylation enrichment (Fyn): 2.32
phosphorylation enrichment (FGFR1): 1.2
phosphorylation enrichment (EPHB2): 0.896
phosphorylation enrichment (EPHB1): 1.51
phosphorylation enrichment (AncSZ): 0.999
